Assay results reported in article doi:10.1101/2022.01.26.477937 (bioRxiv, 2022).

B1: NCV2SG53 monoclonal antibody (human IgG) (antibody, V domains shown)
VH: QVQMVESGGGLVRPGGSLRLSCAASGFTFSDYYMSWIRQAPGKGLEWISYISSSGSSMNYADSVKGRFTISRDNAKNSLFLQMNSLRAEDTAVYYCAREFDLTKIIMVPPYWGQGTLVTVSS
VL: AIQLTQSPSSLSASVGDRVTITCRASQGISSYLAWYQQKPGKAPKVLIYAASTLQSGVPSRFSGSGSGTDFTLTISSLQPEDFATYYCQQLKSYPLTFGGGTKVEIT
B2: Fab fragment of NCV2SG53 (Fab, V domains shown)
VH: B1 VH
VL: B1 VL
B3: Fab fragment from NCV2SG48 (Fab, V domains shown)
VH: EVQLVESGGGLIQPGGSLRLSCAASGFIVSRNYMNWVRQAPGKGLEWVALIYSGGSTFYADSVKGRFTISRDNSKNTLYLQMNSLRAEDTAVYYCARDLVVYGLDYWGQGTLVTVSS
VL: AIQLTQSPSSLSASVGDRVTITCRASQGISSHLAWYQQKPGKAPKLLIFAASTLQSGVPSRFSGSGSGTDFTLTISSLQPEDFATYYCQHLNSNPPITFGQGTRLEIK
B4: NCV2SG48 monoclonal antibody (human IgG) (antibody, V domains shown)
VH: B3 VH
VL: B3 VL

Experiments:
[1] = target: T1, SARS-CoV-2 Wuhan-Hu-1 spike receptor-binding domain (RBD) (SARS-CoV-2 Wuhan-Hu-1, UniProt P0DTC2); test: ELISA
[2] = target: T1, SARS-CoV-2 Wuhan-Hu-1 spike …; test: crystal structure
[3] = target: T1, SARS-CoV-2 Wuhan-Hu-1 spike …; test: BLI

| Binder | binding result [2] | also measured |
| --- | --- | --- |
| B1 |  | binding result [1]: binds |
| B2 | binds |  |
| B3 | binds |  |
| B4 |  | binding result [3]: binds |
